Where no end group is shown, it is not given here.

The first test has as its target natriuretic peptide receptor on C3H10T1/2 cells. The experiment in a line: cell-based or functional assay.
CFGLKLDRIGC [CNP variant SEQ ID NO:22]: the % relative binding (cGMP, Biotrak EIA, peptide at 10^-6 M) came out at 4.2%. Same read-out and setting: for CFGLKLDRIGAQC [CNP variant SEQ ID NO:19] the value was 3.8%. On the same count and under the same terms, for CHFGLKLDRIGAQSC [CNP variant SEQ ID NO:13] the value was 26.5%; for CFGLKLDRIGSMC [CNP variant SEQ ID NO:16], 17.3%. Still for that read-out and setting: under CFGLKLDRIGAQSC [CNP variant SEQ ID NO:15] stands 20.6%. Regarding CHFGLKLDRIGSC [CNP variant SEQ ID NO:20], the % relative binding (cGMP, Biotrak EIA, peptide at 10^-6 M) worked out at 11.9%.

Consider GLSKGCFGLKLDRIGSMSGLGC [CNP 1-22 (native human CNP, 22-mer)], for which the % relative binding (cGMP, Biotrak EIA, peptide at 10^-6 M) was 100%. The same measure, in the same setting: under CFGLKLDRIGSMSC [CNP variant SEQ ID NO:14] stands 29.9%; under CFGLKLDRIGSQC [CNP variant SEQ ID NO:18], 11.8%. As for CFGLKLDRIGAMC (ends and bridges not checked; cysteine pairing not given here) [CNP variant SEQ ID NO:17], the % relative binding (cGMP, Biotrak EIA, peptide at 10^-6 M) is 3.4%. The same measure, in the same setting: under CFGLKLDRIGSC [CNP variant SEQ ID NO:21] stands 22.7%. Same read-out and setting: under CHFGLKLDRIC [CNP variant SEQ ID NO:23] stands 3.8%; under CAGLKLDRIGSMSGLGC [CNP variant SEQ ID NO:6], 43.8%.

Another test shares this target. The test can be described thus: cell-based or functional assay. This is another data set of the same source.
For CAGLKLARIGSASGLGC [CNP variant SEQ ID NO:27], the % relative binding (cGMP, Biotrak EIA, peptide at 10^-6 M) was -10.4%. The same measure, in the same setting: for CFGAKLDRIGSMSGLGC [CNP variant SEQ ID NO:40] the value was 20.2%. The same measure, in the same setting: under CFGLKLDRTGSMSGLGC [CNP variant SEQ ID NO:53] stands -1.95%; under CFGLKLDRIGSGSGLGC [CNP variant SEQ ID NO:69], 62.1%; under CFGIKLDRIGSMSGLGC [CNP variant SEQ ID NO:41], 47.4%.

As to CFGLMLDRIGSMSGLGC [CNP variant SEQ ID NO:44], the % relative binding (cGMP, Biotrak EIA, peptide at 10^-6 M) was found to be 5.42%.

Take CFGLKLDHIGSMSGLGC [CNP variant SEQ ID NO:48]: the % relative binding (cGMP, Biotrak EIA, peptide at 10^-6 M) came to 13.5%. Still for that read-out and setting: for CLGLKLDRIGSMSGLGC [CNP variant SEQ ID NO:29] the value was 6.25%; for CFGLKLDRIGSMSLLGC [CNP variant SEQ ID NO:59], 15.3%; for CMGLKLDRIGSMSGLGC [CNP variant SEQ ID NO:30], -1.34%. On the same count and under the same terms, for CFGLKLDRIGSMSGQGC [CNP variant SEQ ID NO:61] the value was -3.47%; for CFGLKLDRIGSHSGLGC [CNP variant SEQ ID NO:66], 66.2%. Still for that read-out and setting: under CFGLLLDRIGSMSGLGC [CNP variant SEQ ID NO:43] stands 29.7%; under CFGLKLNRIGSMSGLGC [CNP variant SEQ ID NO:37], 17.2%. For CFGLKLDRIGNMSGLGC [CNP variant SEQ ID NO:57], the % relative binding (cGMP, Biotrak EIA, peptide at 10^-6 M) was determined as 27.4%. Still for that read-out and setting: for CFGLKLDRIGSMSKLGC [CNP variant SEQ ID NO:60] the value was 49.2%; for CFGLKIDRIGSMSGLGC [CNP variant SEQ ID NO:46], 88.1%; for CFGLKLDRIGSMSALGC [CNP variant SEQ ID NO:58], 53.6%. Regarding CTGLKLDRIGSMSGLGC [CNP variant SEQ ID NO:34], the % relative binding (cGMP, Biotrak EIA, peptide at 10^-6 M) is -6.9%. The same measure, in the same setting: for CFGLKLDRIGAMSGLGC [CNP variant SEQ ID NO:54] the value was 54.5%; for CWGLKLDRIGSMSGLGC [CNP variant SEQ ID NO:31], -10.8%. In the case of CFGLKLERIGSMSGLGC [CNP variant SEQ ID NO:35], the % relative binding (cGMP, Biotrak EIA, peptide at 10^-6 M) amounted to 9.45%.

For CFGLKLDRIGSMSGGGC [CNP variant SEQ ID NO:64], the % relative binding (cGMP, Biotrak EIA, peptide at 10^-6 M) was -10.1%. On to CFGLKLDRIGGMSGLGC [CNP variant SEQ ID NO:55], for which the % relative binding (cGMP, Biotrak EIA, peptide at 10^-6 M) came to 27.8%. On the same count and under the same terms, under CFGLKLMRIGSMSGLGC [CNP variant SEQ ID NO:39] stands 7.78%; under CHGLKLDRIGSMSGLGC [CNP variant SEQ ID NO:33], 5.7%; under CFGLKLDRIGSMSGMGC [CNP variant SEQ ID NO:62], 51.3%.

Regarding CFGLKLDRIGTMSGLGC [CNP variant SEQ ID NO:56], the % relative binding (cGMP, Biotrak EIA, peptide at 10^-6 M) turned out to be 74.1%.

Consider CFGLKLDRIGSWSGLGC [CNP variant SEQ ID NO:65], for which the % relative binding (cGMP, Biotrak EIA, peptide at 10^-6 M) was 66.5%. Turning to CFGLKLDKIGSMSGLGC [CNP variant SEQ ID NO:49], the % relative binding (cGMP, Biotrak EIA, peptide at 10^-6 M) is 21.5%.

As to CFGLKVDRIGSMSGLGC [CNP variant SEQ ID NO:47], the % relative binding (cGMP, Biotrak EIA, peptide at 10^-6 M) amounted to 66.7%.

As to CVGLKLDRIGSMSGLGC [CNP variant SEQ ID NO:32], the % relative binding (cGMP, Biotrak EIA, peptide at 10^-6 M) was found to be 5.74%. The same measure, in the same setting: under CFGLKADRIGSMSGLGC [CNP variant SEQ ID NO:45] stands 11.3%; under CFGLKLDQIGSMSGLGC [CNP variant SEQ ID NO:50], 12%. CAGLKLARIGSMSGLGC [CNP variant SEQ ID NO:24]: the % relative binding (cGMP, Biotrak EIA, peptide at 10^-6 M) was -5.85%. For CFGVKLDRIGSMSGLGC [CNP variant SEQ ID NO:42], the % relative binding (cGMP, Biotrak EIA, peptide at 10^-6 M) amounted to 64.2%. The same measure, in the same setting: under CIGLKLDRIGSMSGLGC [CNP variant SEQ ID NO:28] stands 13.9%; under CFGLKLARIGSASGLGC [CNP variant SEQ ID NO:26], 5.75%; under CFGLKLDRIGSMSGAGC [CNP variant SEQ ID NO:63], -1.11%. For CFGLKLQRIGSMSGLGC [CNP variant SEQ ID NO:36], the % relative binding (cGMP, Biotrak EIA, peptide at 10^-6 M) is -17.1%. Take CFGLKLDRVGSMSGLGC [CNP variant SEQ ID NO:52]: the % relative binding (cGMP, Biotrak EIA, peptide at 10^-6 M) stood at 27.1%. Still for that read-out and setting: under CFGLKLIRIGSMSGLGC [CNP variant SEQ ID NO:38] stands 7.23%. The same measure, in the same setting: for CFGLKLDRIGSSSGLGC [CNP variant SEQ ID NO:68] the value was 62.5%; for CFGLKLDRIGSKSGLGC [CNP variant SEQ ID NO:67], 66.9%; for CFGLKLDRLGSMSGLGC [CNP variant SEQ ID NO:51], 14.2%.

For the origin of these results see patent US20040138134A1.
